Key:
[1] = tested on: ERK1/2 phosphorylation; test: Phospho-ERK1/2 ELISA in CCD-18Co fibroblasts; assay type: cell-based, human; settings: elafin 1 μg/ml, 2 hours
Experimental: FIG. 27. Elafin inhibited ERK1/2 phosphorylation in intestinal fibroblasts via PAR2. (A) Serum starved CCD-18Co and primary stricturing CD patient-derived colonic fibroblasts were transiently transfected with either control siRNA or ZEB1 siRNA overnight, followed by treatment with 10 ng/ml TGF-β1 or 100 μg/ml stricturing CD patient-derived serum exosomes (CDSE) for 24 hours. (B) CCD-18Co fibroblasts were treated with DMSO, PAR1 inhibitor (SCH79797), or PAR2 inhibitor (GB88) for 2 hours. GB88 inhibited ERK1/2 phosphorylation. (C) CCD-18Co fibroblasts were pretreated with DMSO, PAR1 agonist, or PAR2 agonists for 30 minutes, followed by TGF-β1 10 ng/ml. Two hours later, elafin (1 μg/ml) and incubated for 2 hours. Elafin inhibited ERK1/2 phosphorylation, which was reversed by PAR2 agonist. […] Phospho-ERK1/2, ProCOL1A1, COL1A2, and ZEB1 protein were determined by ELISA. miR205-5p expression was determined by real-time RT-PCR. […]
FIG. 28. […] (D) Quantification of cathepsin S signals (B7-8) and control signals (A1-2 and E1-2) on the protease array using Bio-Rad Image Lab Software. […] Phospho-ERK1/2 was determined by ELISA. […] ProCOL1A1 and COL1A2 were determined by ELISA. […]

[2] = tested on: Human colonic CCD-18Co fibroblasts; test: TGF-β1-induced fibrogenesis in CCD-18Co fibroblasts; assay type: cell-based; settings: TGF-β1-treated CCD-18Co fibroblasts; elafin 1 μg/ml
Experimental: Cleveland Clinic IRB directives (IRB #17-1167). Primary non-IBD patient-derived colonic fibroblasts (H6231) were purchased from Cell Biologics. All primary colonic fibroblasts were cultured in fibroblast medium (M2267, Cell Biologics). Human colonic CCD-18Co fibroblasts (ATCC) were cultured in minimal essential medium Eagle's medium (MEM) containing 10% fetal bovine serum and 1% penicillin-streptomycin 6, 20. All fibroblasts were grown to 80% confluence and then switched to serum-free media overnight for experiments.
For activation of protease-activated receptors (PARs), fibroblasts were pretreated with 0.8% DMSO, 10 μM PAR1 agonist TRAP-6 (HY-P0078, MCE), 10 μM PAR2 agonist SLIGKV-NH2 (Protease-Activated Receptor-2, amide, HY-P0283, MCE), or 0.4 μg/ml PAR2-activating protease recombinant cathepsin S (1183-CY-010, R&D Systems) for 30 minutes. For miR205-5p activation, fibroblasts were transfected with (30 picomoles/well) either control (YM00479902) or miR205-5p miRCURY LNA mimic (YM00472340) from Qiagen via Lipofectamine 3000 transfection reagent (L3000001, ThermoFisher) in Opti-MEM (#31985062, ThermoFisher) overnight. For miR205-5p inhibition, fibroblasts were pretreated with 50nM either control (Y100199006) or miR205-5p power inhibitors (Y104101508-DDA) from Qiagen overnight. […]

B1: Cathepsin S: PAR2-activating protease recombinant cathepsin S (protein)
chain: QLHKDPTLDHHWHLWKKTYGKQYKEKNEEAVRRLIWEKNLKFVMLHNLEHSMGMHSYDLGMNHLGDMTSEEVMSLMSSLRVPSQWQRNITYKSNPNRILPDSVDWREKGCVTEVKYQGSCGACWAFSAVGALEAQLKLKTGKLVSLSAQNLVDCSTEKYGNKGCNGGFMTTAFQYIIDNKGIDSDASYPYKAMDQKCQYDSKYRAATCSKYTELPYGREDVLKEAVANKGPVSVGVDARHPSFFLYRSGVYYEPSCTQNVNHGVLVVGYGDLNGKEYWLVKNSWGHNFGEEGYIRMARNKGNHCGIASFPSYPEI
effect on elafin-mediated inhibition of ERK1/2 phosphorylation [1]: reversed | effect on elafin-mediated inhibition of collagen expression [2]: reversed

Reference: patent US20230405078A1, “DETECTION AND TREATMENT OF INTESTINAL FIBROSIS” (THE REGENTS OF THE UNIVERSITY OF CALIFORNIA, priority 2020, published 2023)
